IntAct's records for PubMed 20133654

B1: Obscurin-like protein 1 (Homo sapiens), O75147 (parent)
chain: MKASSGDQGSPPCFLRFPRPVRVVSGAEAELKCVVLGEPPPVVVWEKGGQQLAASERLSFPADGAEHGLLLTAALPTDAGVYVCRARNAAGEAYAAAAVTVLEPPASDPELQPAERPLPSPGSGEGAPVFLTGPRSQWVLRGAEVVLTCRAGGLPEPTLYWEKDGMALDEVWDSSHFALQPGRAEDGPGASLALRILAARLPDSGVYVCHARNAHGHAQAGALLQVHQPPESPPADPDEAPAPVVEPLKCAPKTFWVNEGKHAKFRCYVMGKPEPEIEWHWEGRPLLPDRRRLMYRDRDGGFVLKVLYCQAKDRGLYVCAARNSAGQTLSAVQLHVKEPRLRFTRPLQDVEGREHGIAVLECKVPNSRIPTAWFREDQRLLPCRKYEQIEEGTVRRLIIHRLKADDDGIYLCEMRGRVRTVANVTVKGPILKRLPRKLDVLEGENAVLLVETLEAGVEGRWSRDGEELPVICQSSSGHMHALVLPGVTREDAGEVTFSLGNSRTTTLLRVKCVKHSPPGPPILAEMFKGHKNTVLLTWKPPEPAPETPFIYRLERQEVGSEDWIQCFSIEKAGAVEVPGDCVPSEGDYRFRICTVSGHGRSPHVVFHGSAHLVPTARLVAGLEDVQVYDGEDAVFSLDLSTIIQGTWFLNGEELKSNEPEGQVEPGALRYRIEQKGLQHRLILHAVKHQDSGALVGFSCPGVQDSAALTIQESPVHILSPQDRVSLTFTTSERVVLTCELSRVDFPATWYKDGQKVEESELLVVKMDGRKHRLILPEAKVQDSGEFECRTEGVSAFFGVTVQDPPVHIVDPREHVFVHAITSECVMLACEVDREDAPVRWYKDGQEVEESDFVVLENEGPHRRLVLPATQPSDGGEFQCVAGDECAYFTVTITDVSSWIVYPSGKVYVAAVRLERVVLTCELCRPWAEVRWTKDGEEVVESPALLLQKEDTVRRLVLPAVQLEDSGEYLCEIDDESASFTVTVTEPPVRIIYPRDEVTLIAVTLECVVLMCELSREDAPVRWYKDGLEVEESEALVLERDGPRCRLVLPAAQPEDGGEFVCDAGDDSAFFTVTVTAPPERIVHPAARSLDLHFGAPGRVELRCEVAPAGSQVRWYKDGLEVEASDALQLGAEGPTRTLTLPHAQPEDAGEYVCETRHEAITFNVILAEPPVQFLALETTPSPLCVAPGEPVVLSCELSRAGAPVVWSHNGRPVQEGEGLELHAEGPRRVLCIQAAGPAHAGLYTCQSGAAPGAPSLSFTVQVAEPPVRVVAPEAAQTRVRSTPGGDLELVVHLSGPGGPVRWYKDGERLASQGRVQLEQAGARQVLRVQGARSGDAGEYLCDAPQDSRIFLVSVEEPLLVKLVSELTPLTVHEGDDATFRCEVSPPDADVTWLRNGAVVTPGPQVEMAQNGSSRILTLRGCQLGDAGTVTLRAGSTATSARLHVRETELLFLRRLQDVRAEEGQDVCLEVETGRVGAAGAVRWVRGGQPLPHDSRLSMAQDGHIHRLFIHGVILADQGTYGCESHHDRTLARLSVRPRQLRVLRPLEDVTISEGGSATFQLELSQEGVTGEWARGGVQLYPGPKCHIHSDGHRHRLVLNGLGLADSGCVSFTADSLRCAARLIVREVPVTIVRGPHDLEVTEGDTATFECELSQALADVTWEKDGNALTPSPRLRLQALGTRRLLQLRRCGPSDAGTYSCAVGTARAGPVRLTVRERTVAVLSELRSVSAREGDGATFECTVSEVETTGRWELGGRPLRPGARVRIRQEGKKHILVLSELRAEDAGEVRFQAGPAQSLALLEVEALPLQMCRHPPREKTVLVGRRAVLEVTVSRSGGHVCWLREGAELCPGDKYEMRSHGPTHSLVIHDVRPEDQGTYCCQAGQDSTHTRLLVEGN

Variants of: B1
Conditions: with titin_human TTN

Variant	effect of a mutation on the interaction
F17R	decreasing interaction
